Earlier results on 1 substance are cited in US6726924B2, “Oral liposomal delivery system” (Biozone Laboratories, Inc., priority 1997, dated 2004).

The conditions of this data set: oral; free vs liposomes with ceramides; Regnault et al. 1996.

For the substance superoxide dismutase, the bioavailability (as a rule, the share of a dose that reaches the circulation, judged against a reference dose that is usually intravenous) is reported as 14%.
